# T1: Saccharomyces cerevisiae P5C reductase (Pro3, ScP5CR) (Saccharomyces cerevisiae, UniProt P32263)
# T1 construct: native full-length enzyme purified from commercial bakers' yeast; untagged; gene-deduced subunit 30,132 Da; native 320 kDa, homodecamer
# T1 sequence (P32263 1-286): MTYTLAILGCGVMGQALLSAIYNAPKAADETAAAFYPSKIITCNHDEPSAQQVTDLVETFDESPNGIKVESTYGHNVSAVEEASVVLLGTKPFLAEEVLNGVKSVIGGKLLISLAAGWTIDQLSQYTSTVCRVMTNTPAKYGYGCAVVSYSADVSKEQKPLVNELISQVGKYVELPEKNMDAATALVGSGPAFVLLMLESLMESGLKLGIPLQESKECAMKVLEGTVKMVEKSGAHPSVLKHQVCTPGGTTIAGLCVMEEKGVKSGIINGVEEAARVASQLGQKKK
# Key:
# [1] = target: T1, Saccharomyces cerevisiae P5C reductase (Pro3, ScP5CR); assay: NAD(P)H oxidation at […] nm, nonlinear regression; assay type: biochemical
# purified protein [2] = substrate: NC(=O)C1=CN([C@@H]2O[C@H](COP(=O)(O)OP(=O)(O)OC[C@H]3O[C@@H](n4cnc5c(N)ncnc54)[C@H](OP(=O)(O)O)[C@@H]3O)[C@@H](O)[C@H]2O)C=CC1; assay: purified protein; assay type: biochemical, Saccharomyces cerevisiae; conditions: 1 mM L-P5C, Tris-HCl pH 7.2, 30 °C, kcat per monomer
# purified protein [3] = substrate: O=C(O)[C@@H]1CCC=N1; assay: purified protein; assay type: biochemical, Saccharomyces cerevisiae; conditions: 0.5 mM NADH co-substrate, Tris-HCl pH 7.2, 30 °C, DL-P5C used, concentration as L-P5C
# purified protein [4] = substrate: NC(=O)C1=CN([C@@H]2O[C@H](COP(=O)(O)OP(=O)(O)OC[C@H]3O[C@@H](n4cnc5c(N)ncnc54)[C@H](O)[C@@H]3O)[C@@H](O)[C@H]2O)C=CC1; assay: purified protein; assay type: biochemical, Saccharomyces cerevisiae; conditions: 1 mM L-P5C, Tris-HCl pH 7.2, 30 °C, kcat per monomer
Molecule,Ki [1] [mM],Km (purified protein [2]) [µM],Vmax (purified protein [2]),kcat (purified protein [2]),kcat/Km (purified protein [2]) [M⁻¹ s⁻¹],Km (purified protein [3]) [µM],Km (purified protein [4]) [µM],Vmax (purified protein [4]),kcat (purified protein [4]) [s⁻¹],kcat/Km (purified protein [4]) [M⁻¹ s⁻¹]
N=C(N)NCCC[C@H](N)C(=O)O [arginine],19,–,–,–,–,–,–,–,–,–
"Saccharomyces cerevisiae P5C reductase (Pro3, ScP5CR) (Saccharomyces cerevisiae S288C) (protein, native full-length enzyme purified from commercial bakers' yeast; untagged; gene-deduced subunit 30,132 Da; native 320 kDa, homodecamer) MTYTLAILGCGVMGQALLSAIYNAPKAADETAAAFYPSKIITCNHDEPSAQQVTDLVETFDESPNGIKVESTYGHNVSAVEEASVVLLGTKPFLAEEVLNGVKSVIGGKLLISLAAGWTIDQLSQYTSTVCRVMTNTPAKYGYGCAVVSYSADVSKEQKPLVNELISQVGKYVELPEKNMDAATALVGSGPAFVLLMLESLMESGLKLGIPLQESKECAMKVLEGTVKMVEKSGAHPSVLKHQVCTPGGTTIAGLCVMEEKGVKSGIINGVEEAARVASQLGQKKK",–,133.4 ± 7.3,294.2 ± 5.7 μkat (mg protein)^−1,"10,515 s^−1",7.88e+07,64.3 ± 5.5,84.0 ± 7.1,107.9 ± 3.0 μkat (mg protein)^−1,3314,3.95e+07

# From paper PMC9608600, “Functional Characterization of Saccharomyces cerevisiae P5C Reductase, the Enzyme at the Converging Point of Proline and Arginine Metabolism” (Microorganisms, 2022)
